{"source": "paper doi:10.1101/2025.07.24.665437", "about": "“Consensus DNA Inhibits p53 Aggregation but Fails to Rescue Mutants”", "binders": {"B1": {"name": "p21-RE (dsDNA)", "DNA 1": "CGCGAACATGTCCCAACATGTTGCGC", "DNA 2": "GCGCAACATGTTGGGACATGTTCGCG"}}, "molecular_target": "p53 DBD WT (UniProt P04637 94-312)", "sequence (P04637 94-312)": "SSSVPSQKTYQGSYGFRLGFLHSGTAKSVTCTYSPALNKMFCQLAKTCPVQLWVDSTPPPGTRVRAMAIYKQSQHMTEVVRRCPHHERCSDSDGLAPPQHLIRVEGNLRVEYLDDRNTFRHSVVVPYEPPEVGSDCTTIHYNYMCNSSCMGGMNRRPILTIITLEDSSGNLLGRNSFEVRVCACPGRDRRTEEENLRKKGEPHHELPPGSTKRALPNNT", "assay": "EMSA; protein:DNA 1:1, 9:1, 454:1; binding kept 24 h to 1 month; EMSA on TBE gels; protein in 1X PBS, 1 mM TCEP, pH 7.4; DNA stocks in 50 mM Tris-HCl, 137 mM NaCl, pH 8.1; samples held at 4 C (0 hr) or incubated (37 C, 24 h for aggregation); full EMSA details not in material", "conditions": "protein: recombinant; tags: 6xHis-TEV (N-terminal); blunt"}
{"binder": "B1", "values": [{"measurement": "binding result", "value": "binds"}]}
